The values below are quoted from earlier work in patent publication US6896870B1, “Diagnostic probes and therapeutics targeting uPA and uPAR” (Angstrom Pharmaceuticals, Inc., priority 1999, dated 2005).

This series has as its target uPAR (Homo sapiens, UniProt Q03405). As to conditions: read-out: IC50, prevention of uPA binding to uPAR.

Bridge positions count the residues as written; N and C are the ends. Ends that are not written are not given here.

Chain of uPAR (Q03405 23-305): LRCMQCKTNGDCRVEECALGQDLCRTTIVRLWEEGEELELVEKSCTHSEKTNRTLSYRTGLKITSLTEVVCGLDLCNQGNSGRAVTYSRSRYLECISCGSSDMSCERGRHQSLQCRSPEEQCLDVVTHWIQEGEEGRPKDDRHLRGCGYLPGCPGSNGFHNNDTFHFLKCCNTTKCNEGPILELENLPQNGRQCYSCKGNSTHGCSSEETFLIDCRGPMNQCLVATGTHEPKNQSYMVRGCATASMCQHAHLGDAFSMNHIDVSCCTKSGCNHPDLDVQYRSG

As for “[Ala^19]uPA(12-32) [[Ala^19]uPA(12-32) oxidized cyclic form] (DCLNGGTAVSNKYFSNIHWCN; disulfide 2-20 (inferred); UniProt P00749 32-52, looked up, variant C19A) [same peptide cyclised by intrachain disulfide bond]”, the IC50 is 40 nM.
As to “[Ala^19]uPA(12-32) [[Ala^19]uPA(12-32) open chain form] (DCLNGGTAVSNKYFSNIHWCN; UniProt P00749 32-52, looked up, variant C19A) [uPA GFD peptide with two cysteines, the third cysteine replaced by Ala]”, the IC50 was 100 nM.

Usually IC50 stands for the point on the concentration scale where inhibition reaches its midpoint.
